Substitutions are numbered along the chain they refer to.
Key:
Type in all cases: cell-based, Saccharomyces cerevisiae
S. cerevisiae 334 [1] = test: Comparison of MAELO and S. cerevisiae ELO2 PUFA elongase activity in baker's yeast; details: 25 μM GLA; FIG. 12
Excerpt: The ELO2 gene encoding for the yeast elongase was cloned from an S. cerevisiae genomic library (Origene, Rockville, Md.) using the primers RO514 (SEQ ID NO: 94) (5′-GGCTATGGATCCATGAATTCACTCGTTACTCAATATG-3′) and RO515 (SEQ ID NO: 95)(5′-CCTGCCAAGCTTTTACCTTTTTCTTCTGTGTTGAG-3′) incorporating the restriction sites (underlined) BamHI and HindIII (respectively). The ELO2 gene was cloned into the vector pYX242 at the BamHI and HindIII sites, designated pRELO, transformed into the S. cerevisiae host 334 (Hoveland et al., supra) and screened for PUFA elongase activity. The vector plasmid was used as a negative control and 334(pRAE-5) was grown to compare the PUFA elongase activity. The cultures were grown as previously described with no galactose in the media and 25 μM GLA added as a substrate. […] Additionally, when DGLA produced is expressed as a percent of the total lipids (shown in parenthesis, FIG. 12), the clones 334(pRELO-1) and 334 (pRELO-2) produced 0.153% and 0.2% DGLA respectively, while 334(pYX242) produced 0.185% DGLA. […] The M. alpina PUFA elongase activity is specific for this conversion as evidenced by the higher amount of DGLA produced compared to the control, 334(pYX242).

S. cerevisiae 334 [2] = test: Co-expression of GLELO and M. alpina Δ5-desaturase in yeast
Protocol: Once DGLA (20:3n-6) is produced by the GLA elongase, the Δ5-desaturase can convert it to AA (20:4n-6) in a desired co-expression system. […] Therefore, the GLA elongase has the ability to work with other enzymes in the n-6 PUFA synthetic pathway to produce desirable fatty acids.
To determine whether the above conversion is also true in n-3 pathways, the similar co-expression experiments were carried out in the presence of 25 μM STA. Again, if both enzymes are expressed, the STA substrate will be converted to 20:4n-3 which will then be converted to EPA (20:5n-3) by the Δ5-desaturase.

S. cerevisiae 334 [3] = test: GLA elongase (GLELO) activity and substrate specificity in yeast
Protocol: To further confirm the activity of the GLA elongase encoded by the pRPB2 recombinant plasmid, elongase activity screening was repeated on the yeast clone SC334 containing pRPB2 plasmid. This experiment was also conducted to assure consistent lipid extraction and to detect the activity of GLA elongase by averaging four independent experiments. The S. cerevisiae 334 glycerol stock containing pRPB2 was plated onto minimal media agar plates lacking uracil. Individual colonies were randomly picked and grown in minimal medium lacking uracil, as described in Example VIII. The four independent cultures were combined, and a 5 ml aliquot was used as an inoculum for four separate 50 ml cultures. The cultures were then grown in the presence of GLA and were subjected to fatty acid analysis along with a negative control of S. cerevisiae 334 containing pYES2, as described in Example VIII. The GLA elongase activity of each of the four independent samples of 334(pRPB2) appeared to be consistent with an average conversion of 62% GLA to DGLA.
To analyze the substrate specificity of the GLA elongase, the culture of 334(pRPB2) was tested with different fatty acid substrates besides GLA (e.g., SA(18:0), OA(18:1), LA(18:2n-6), AA(20:4n-6), ADA(22:4n-6), ALA(18:3n-3), STA(18:4n-3), and EPA(20:5n-3)). […] GLA elongase was able to convert 73% of STA to 20:4n-3 (FIG. 25).

S. cerevisiae 334 [4] = test: Pavlova sp. elongase PELO1 activity in yeast; details: for elongation of GLA to DGLA: 25 μM of GLA
Protocol: (§1) The construct pRPL-6-1 was transformed into S. cerevisiae 334 (Hoveland et al., supra) and screened for elongase activity. S. cerevisiae 334 containing the unaltered pYX242 vector was used as a negative control. The cultures were grown for 44 hours at 24°C, in selective media (Ausubel et al., supra), in the presence of 25 μM of GLA or EPA. In this study, DGLA or ω3-docosapentaenoic acid (DPA, 22:5n-3), respectively, was the predicted product of the elongase activity.
as §1, with “constructs pRPL-6-B2 and pRPL-6-A3 were” for “construct pRPL-6-1 was”, “24° C.,” for “24°C,”
To further confirm the substrate specificity of the algal elongation enzyme, described above and referred to herein as PELO1p, the recombinant yeast strain 334(pRPL-6-B2) was grown in minimal media containing n-6 fatty acids LA, GLA, DGLA, AA, or n-3 fatty acids ALA, STA, ETA, EPA, or 20:0, or 20:1. […] The levels of these fatty acids were 1.40% ADA and 2.54% […], respectively, of the total fatty acids in the strains containing the PELO1 sequence. […] No elongation of the saturated fatty acid 20:0, or monounsaturated fatty acid 20:1 was seen. Also, no elongation of the C18 substrates LA, GLA, ALA, or STA was seen.

[5] = 25 μM of EPA, 44 hours at 24° C.

B1: 334(pRELO-1): individual clone of S. cerevisiae 334 overexpressing S. cerevisiae elongase ELO2 in pYX242 (pRELO) (protein, UniProt P25358 1-347, looked up)
Fatty acid elongase 2: MNSLVTQYAAPLFERYPQLHDYLPTLERPFFNISLWEHFDDVVTRVTNGRFVPSEFQFIAGELPLSTLPPVLYAITAYYVIIFGGRFLLSKSKPFKLNGLFQLHNLVLTSLSLTLLLLMVEQLVPIIVQHGLYFAICNIGAWTQPLVTLYYMNYIVKFIEFIDTFFLVLKHKKLTFLHTYHHGATALLCYTQLMGTTSISWVPISLNLGVHVVMYWYYFLAARGIRVWWKEWVTRFQIIQFVLDIGFIYFAVYQKAVHLYFPILPHCGDCVGSTTATFAGCAIISSYLVLFISFYINVYKRKGTKTSRVVKRAHGGVAAKVNEYVNVDLKNVPTPSPSPKPQHRRKR
DGLA produced as a percent of the total lipids (S. cerevisiae 334 [1]): 0.153%
amount of 20:3n-6 or DGLA produced relative to negative control pYX242 (S. cerevisiae 334 [1]): twice

B2: 334(pRELO-2): individual clone of S. cerevisiae 334 overexpressing S. cerevisiae elongase ELO2 in pYX242 (pRELO) (protein, UniProt P25358 1-347, looked up)
Fatty acid elongase 2: B1 Fatty acid elongase 2
DGLA produced as a percent of the total lipids (S. cerevisiae 334 [1]): 0.2%
amount of 20:3n-6 or DGLA produced relative to negative control pYX242 (S. cerevisiae 334 [1]): twice

B3: GLELO: M. alpina GLA elongase, 318 amino acids, encoded by GLELO cDNA (SEQ ID NO:2) in plasmid pRPB2 (protein, listed as Mortierella alpina)
chain: MESIAPFLPSKMPQDLFMDLATAIGVRAAPYVDPLEAALVAQAEKYIPTIVHHTRGFLVAVESPLARELPLMNPFHVLLIVLAYLVTVFVGMQIMKNFERFEVKTFSLLHNFCLVSISAYMCGGILYEAYQANYGLFENAADHTFKGLPMAKMIWLFYFSKIMEFVDTMIMVLKKNNRQISFLHVYHHSSIFTIWWLVTFVAPNGEAYFSAALNSFIHVIMYGYYFLSALGFKQVSFIKFYITRSQMTQFCMMSVQSSWDMYAMKVLGRPGYPFFITALLWFYMWTMLGLFYNFYRKNAKLAKQAKADAAKEKARKLQ
average conversion of GLA to AA (S. cerevisiae 334 [2]; 25 μM GLA, co-expressed with Δ5-desaturase (pRPE31), FIG. 26A): 27%
production of EPA (S. cerevisiae 334 [2]; 25 μM STA, co-expressed with Δ5-desaturase, FIG. 26B): approx. 40%
average conversion of GLA to DGLA (S. cerevisiae 334 [3]; 25 μM GLA, four independent cultures, FIG. 24): 62%
utilization of other substrates SA, OA, LA, AA, ADA, ALA, STA, EPA (S. cerevisiae 334 [3]; identical assay conditions): the only other substrate utilized by the elongase enzyme was STA
conversion of STA to 20:4n-3 (S. cerevisiae 334 [3]; substrate STA, FIG. 25): 73%

B4: pRPL-6-1: PELO1 clone with a single mutation relative to pRPL-6-B2 that dramatically reduced conversion (protein)
chain: MMLAAGYLLVLSAARQSFQQDIDNPNGAYSTSWTGLPIVMSVVYLSGVFGLTKYFENRKPMTGLKDYMFTYNLYQVIINVWCVVAFLLEVRRAGMSLIGNKVDLGPNSFRLGFVTWVHYNNKYVELLDTLWMVLRKKTQQVSFLHVYHHVLLMWAWFVVVKLGNGGDAYFAGLMNSIIHVMMYSYYTMALLGWSCPWKRYLTQAQLVQFCICLAHSTWAAVTGAYPWRICLVEVWVMVSMLVLFTRFYRQAYAKEAKAKEAKKLAQEASQAKAVKAE
modifications: Pavlova sp. (specific species unknown)
DPA, of total fatty acids (S. cerevisiae 334 [4]; [5]): 0.34%
EPA (substrate), of total fatty acids (S. cerevisiae 334 [4]; [5]): 32.28%
elongation of GLA to DGLA (S. cerevisiae 334 [4]; 44 hours at 24° C.): no conversion of GLA to DGLA was seen

B5: PELO1: Pavlova sp. 459 elongase (SEQ ID NO:119) from plasmid pRPL-6-B2 (protein)
chain: B4 chain with A171G
modifications: Pavlova sp. (specific species unknown)
conversion of the substrate EPA to DPA (S. cerevisiae 334 [4]; 25 μM of EPA, 44 hours at 24° C., FIG. 99): significant levels of conversion
elongation of GLA to DGLA (S. cerevisiae 334 [4]; 44 hours at 24° C.): GLA was not elongated to DGLA
elongation of saturated fatty acid 20:0 or monounsaturated fatty acid 20:1 (S. cerevisiae 334 [4]; FIG. 101): No elongation
elongation of the C18 substrates LA, GLA, ALA, or STA (S. cerevisiae 334 [4]; FIG. 101): no elongation
conversion of AA to ADA (S. cerevisiae 334 [4]; substrate AA, FIG. 101): 14.0%
level of ADA, of the total fatty acids (S. cerevisiae 334 [4]; substrate AA, FIG. 101): 1.40%
conversion of EPA to product elongated by two carbon atoms (S. cerevisiae 334 [4]; substrate EPA, FIG. 101): 14.1%
level of EPA (so in the source), of the total fatty acids (S. cerevisiae 334 [4]; substrate EPA, FIG. 101): 2.54%
